Paper PMC2734569, “Functional mapping of the fission yeast DNA polymerase δ B-subunit Cdc1 by site-directed and random pentapeptide insertion mutagenesis” (BMC Molecular Biology, 2009)
Where a chain is given by its changes, count along the chain named.

Key:
Assay in all cases: two-hybrid; LexA-Cdc1 bait (pBTM116 or pBTM116BN) with Gal4-Pol3 prey and co-expressed c-myc-tagged Cdc27 (pAA-Cdc27) in S. cerevisiae CTY10-5d; ONPG liquid culture beta-galactosidase assay, mean of triplicates, as percent of wild-type Cdc1
[1] = biological target: Cdc1-J17 (Schizosaccharomyces pombe) (UniProt P87324)
[2] = biological target: T1, Cdc1-A6 (Schizosaccharomyces pombe, UniProt P87324 1-462, Pro329Ala); details: partners not purified
T1 construct: Cdc1, S. pombe, point mutant; source: yeast two-hybrid fusion, in S. cerevisiae CTY10-5d
T1 sequence (looked up): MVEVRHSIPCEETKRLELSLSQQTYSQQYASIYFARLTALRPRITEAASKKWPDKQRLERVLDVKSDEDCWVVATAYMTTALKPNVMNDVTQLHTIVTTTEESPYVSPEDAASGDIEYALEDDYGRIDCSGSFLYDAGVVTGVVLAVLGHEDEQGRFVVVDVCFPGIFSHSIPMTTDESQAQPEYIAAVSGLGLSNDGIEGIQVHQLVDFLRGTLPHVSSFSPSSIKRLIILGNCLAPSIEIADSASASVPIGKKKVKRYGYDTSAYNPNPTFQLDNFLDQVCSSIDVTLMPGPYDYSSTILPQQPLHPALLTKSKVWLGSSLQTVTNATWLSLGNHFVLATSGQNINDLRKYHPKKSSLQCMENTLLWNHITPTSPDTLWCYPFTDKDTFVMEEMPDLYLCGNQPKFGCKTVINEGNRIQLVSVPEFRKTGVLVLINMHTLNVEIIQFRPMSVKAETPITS

[3] = biological target: T2, Cdc1-J22 (Schizosaccharomyces pombe, UniProt P87324 1-462, Arg-GlyValProLeuArg-Gly); details: partners not purified
T2 construct: Cdc1, S. pombe, with a pentapeptide inserted after residue 212; source: yeast two-hybrid fusion, in S. cerevisiae CTY10-5d
T2 sequence (looked up): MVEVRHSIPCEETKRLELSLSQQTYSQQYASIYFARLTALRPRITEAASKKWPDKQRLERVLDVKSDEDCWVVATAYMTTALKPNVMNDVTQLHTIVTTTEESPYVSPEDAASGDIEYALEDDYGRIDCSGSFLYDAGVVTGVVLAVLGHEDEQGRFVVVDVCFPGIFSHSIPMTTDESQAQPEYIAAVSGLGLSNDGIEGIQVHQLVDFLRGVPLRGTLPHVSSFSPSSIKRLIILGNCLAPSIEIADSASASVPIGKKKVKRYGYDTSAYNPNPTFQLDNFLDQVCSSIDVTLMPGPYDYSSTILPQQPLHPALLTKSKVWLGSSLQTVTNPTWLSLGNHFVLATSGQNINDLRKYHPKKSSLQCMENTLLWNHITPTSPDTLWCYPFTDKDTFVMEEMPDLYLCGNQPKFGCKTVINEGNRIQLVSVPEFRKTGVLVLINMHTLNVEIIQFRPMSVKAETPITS

[4] = biological target: T3, Cdc1-A7 (Schizosaccharomyces pombe, UniProt P87324 1-462, Gly344Ala); details: partners not purified
T3 construct: Cdc1, S. pombe, point mutant; source: yeast two-hybrid fusion, in S. cerevisiae CTY10-5d
T3 sequence (looked up): T1 sequence (looked up) with A329P, G344A

[5] = biological target: T4, Cdc1-J16 (Schizosaccharomyces pombe, UniProt P87324 1-462, Val-GlyGlyThrProVal-Asp); details: partners not purified
T4 construct: Cdc1, S. pombe, with a pentapeptide inserted after residue 160; source: yeast two-hybrid fusion, in S. cerevisiae CTY10-5d
T4 sequence (looked up): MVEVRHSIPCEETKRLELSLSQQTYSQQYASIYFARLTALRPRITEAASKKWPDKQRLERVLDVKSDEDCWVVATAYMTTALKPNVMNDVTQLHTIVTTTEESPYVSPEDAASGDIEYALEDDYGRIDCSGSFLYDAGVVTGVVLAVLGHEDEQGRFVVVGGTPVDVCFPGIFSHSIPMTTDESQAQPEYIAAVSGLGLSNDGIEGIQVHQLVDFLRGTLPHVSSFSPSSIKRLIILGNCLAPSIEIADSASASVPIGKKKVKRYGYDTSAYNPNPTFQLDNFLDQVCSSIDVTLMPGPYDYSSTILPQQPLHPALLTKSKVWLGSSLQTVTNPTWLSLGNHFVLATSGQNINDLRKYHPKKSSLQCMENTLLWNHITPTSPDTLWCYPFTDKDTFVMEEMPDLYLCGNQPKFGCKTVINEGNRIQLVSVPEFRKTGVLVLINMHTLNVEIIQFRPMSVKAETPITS

- two-hybrid beta-galactosidase activity, % of wild-type Cdc1 [1]: 2%
- two-hybrid beta-galactosidase activity, % of wild-type Cdc1 [2]: < 1%
- two-hybrid beta-galactosidase activity, % of wild-type Cdc1 [3]: 25%
- two-hybrid beta-galactosidase activity, % of wild-type Cdc1 [4]: 9%
- two-hybrid beta-galactosidase activity, % of wild-type Cdc1 [5]: < 1%
B1: Pol3 (fission yeast DNA polymerase delta catalytic subunit) (natural protein, Schizosaccharomyces pombe, UniProt P30316 1-1086, looked up)
chain: MTDRSSNEGVVLNKENYPFPRRNGSIHGEITDVKRRRLSERNGYGDKKGSSSKEKTSSFEDELAEYASQLDQDEIKSSKDQQWQRPALPAINPEKDDIYFQQIDSEEFTEGSVPSIRLFGVTDNGNSILVHVVGFLPYFYVKAPVGFRPEMLERFTQDLDATCNGGVIDHCIIEMKENLYGFQGNEKSPFIKIFTTNPRILSRARNVFERGEFNFEELFPVGVGVTTFESNTQYLLRFMIDCDVVGMNWIHLPASKYQFRYQNRVSNCQIEAWINYKDLISLPAEGQWSKMAPLRIMSFDIECAGRKGVFPDPSIDPVIQIASIVTQYGDSTPFVRNVFCVDTCSQIVGTQVYEFQNQAEMLSSWSKFVRDVDPDVLIGYNICNFDIPYLLDRAKSLRIHNFPLLGRIHNFFSVAKETTFSSKAYGTRESKTTSIPGRLQLDMLQVMQRDFKLRSYSLNAVCSQFLGEQKEDVHYSIITDLQNGTADSRRRLAIYCLKDAYLPQRLMDKLMCFVNYTEMARVTGVPFNFLLARGQQIKVISQLFRKALQHDLVVPNIRVNGTDEQYEGATVIEPIKGYYDTPIATLDFSSLYPSIMQAHNLCYTTLLDSNTAELLKLKQDVDYSVTPNGDYFVKPHVRKGLLPIILADLLNARKKAKADLKKETDPFKKAVLDGRQLALKVSANSVYGFTGATNGRLPCLAISSSVTSYGRQMIEKTKDVVEKRYRIENGYSHDAVVIYGDTDSVMVKFGVKTLPEAMKLGEEAANYVSDQFPNPIKLEFEKVYFPYLLISKKRYAGLFWTRTDTYDKMDSKGIETVRRDNCPLVSYVIDTALRKMLIDQDVEGAQLFTKKVISDLLQNKIDMSQLVITKALSKTDYAAKMAHVELAERMRKRDAGSAPAIGDRVAYVIIKGAQGDQFYMRSEDPIYVLENNIPIDAKYYLENQLSKPLLRIFEPILGEKASSLLHGDHTRTISMAAPSVGGIMKFAVKVETCLGCKAPIKKGKTALCENCLNRSAELYQRQVAQVNDLEVRFARLWTQCQRCQGSMHQDVICTSRDCPIFYMRIAEHKKLQQSVDLLKRFDEMSW
notes: DNA polymerase delta catalytic subunit Pol3, S. pombe; prey plasmid named pACT-Pol3 in the results and pGAD2F-Pol3 in the methods; also called Gal4-Pol3; pACT-Pol3; source: yeast two-hybrid fusion, in S. cerevisiae CTY10-5d
